Test [1] concerns the target BCMA expressed on MM1S cells (human) (UniProt Q02223). The test is described as follows: cell-based or functional assay.
Test [2] addresses B-cell maturation antigen (BCMA) (human) (UniProt Q02223). The test is described as follows: cell-based or functional assay.

Substitutions are numbered along the chain they refer to. In names and notes the source's numbering stands.

Sequence of B-cell maturation antigen (BCMA) (human) (Q02223 whole entry): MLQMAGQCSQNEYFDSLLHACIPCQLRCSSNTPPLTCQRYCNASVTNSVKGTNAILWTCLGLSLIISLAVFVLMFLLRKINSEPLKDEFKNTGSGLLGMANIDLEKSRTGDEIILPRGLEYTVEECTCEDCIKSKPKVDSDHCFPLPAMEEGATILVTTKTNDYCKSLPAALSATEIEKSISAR
Sequence of BCMA expressed on MM1S cells (human) (Q02223 whole entry): as above

B1: P6AP-V1 (protein)
chain: EVQLLESGGGLVQPGGSLRLSCAASGFTFGSYAMTWVRQAPGKGLEWVSAISGSGGNTFYADSVKGRFTISRDNSKNTLYLQMNSLRAEDTAVYYCARVSPIAAPMDYWGQGTLVTVSSGGGGSGGGGSGGGGSEIVLTQSPGTLSLSPGERATLSCRASQLGSFYLAWYQQKPGQAPRLLIYGASSRATGIPDRFSGSGSGTDFTLTISRLEPEDFAVYYCQHYNYPPSFTFGQGTKVEIKGLAVSTISSFFPPGYQIYIWAPLAGTCGVLLLSLVITLYCKRGRKKLLYIFKQPFMRPVQTTQEEDGCSCRFPEEEEGGCELRVKFSRSADAPAYQQGQNQLYNELNLGRREEYDVLDKRRGRDPEMGGKPRRKNPQEGLYNELQKDKMAEAYSEIGMKGERRRGKGHDGLYQGLSTATKDTYDALHMQALPPR
Take B1: in test [1], the % CD107a+ (in CD8+) (degranulation, Donor 1, co-culture with MM1S) stood at 46.4% and the MFI CD107a+ (degranulation, CD8+ T cells, Donor 1, co-culture with MM1S) turned out to be 1850 MFI.

B2: PC1C12-V1 (protein)
chain: EVQLLESGGGLVQPGGSLRLSCAASGFTFSSYPMSWVRQAPGKGLEWVSAIGGSGGWSYYADSVKGRFTISRDNSKNTLYLQMNSLRAEDTAVYYCARYWPMDSWGQGTLVTVSSGGGGSGGGGSGGGGSEIVLTQSPGTLSLSPGERATLSCWLSQSVSSTYLAWYQQKPGQAPRLLIYDASSRAPGIPDRFSGSGSGTDFTLTISRLEPEDFAVYYCQQYSEWPLTFGQGTKVEIKGLAVSTISSFFPPGYQIYIWAPLAGTCGVLLLSLVITLYCKRGRKKLLYIFKQPFMRPVQTTQEEDGCSCRFPEEEEGGCELRVKFSRSADAPAYQQGQNQLYNELNLGRREEYDVLDKRRGRDPEMGGKPRRKNPQEGLYNELQKDKMAEAYSEIGMKGERRRGKGHDGLYQGLSTATKDTYDALHMQALPPR
In test [2], B2 displayed a % CD107a+ (in CD8+) (degranulation, MM1S cells, Donor 3) of 68.2% and an MFI CD107a+ (degranulation, MM1S cells, Donor 3) of 1960 MFI.

B3: PC1-V1 (protein)
chain: B2 chain with W57S, S58T, W154R, L155A, E224T, W225S
For the molecule B3, in test [2], the % CD107a+ (in CD8+) (degranulation, MM1S cells, Donor 3) was 75.6% and the MFI CD107a+ (degranulation, MM1S cells, Donor 3) came to 2180 MFI.

B4: COM22-V1 (protein)
chain: EVQLLESGGGLVQPGGSLRLSCAASGFTFSSYAMNWVRQAPGKGLEWVSAISDSGGSRWYADSVKGRFTISRDNSKNTLYLQMNSLRAEDTAVYYCTRYWPMDIWGQGTLVTVSSGGGGSGGGGSGGGGSEIVLTQSPGTLSLSPGERATLSCRASVRVSSTYLAWYQQKPGQAPRLLMYDASIRATGIPDRFSGSGSGTDFTLTISRLEPEDFAVYYCQQYMKWPLTFGQGTKVEIKGLAVSTISSFFPPGYQIYIWAPLAGTCGVLLLSLVITLYCKRGRKKLLYIFKQPFMRPVQTTQEEDGCSCRFPEEEEGGCELRVKFSRSADAPAYQQGQNQLYNELNLGRREEYDVLDKRRGRDPEMGGKPRRKNPQEGLYNELQKDKMAEAYSEIGMKGERRRGKGHDGLYQGLSTATKDTYDALHMQALPPR
As to B4, in test [2], the % CD107a+ (in CD8+) (degranulation, MM1S cells, Donor 3) turned out to be 76.1% and the MFI CD107a+ (degranulation, MM1S cells, Donor 3) turned out to be 2220 MFI.

B5: P5AC16-V1 (protein)
chain: B4 chain with S54F, R58T, W59Y, T97A, V157Q, R158S, S161D, T162L, M223Q, K224T
B5: in test [2], the % CD107a+ (in CD8+) (degranulation, MM1S cells, Donor 2) came out at 61.6% and the MFI CD107a+ (degranulation, MM1S cells, Donor 2) was 1860 MFI.

B6: P5A-V1 (protein)
chain: B4 chain with R58T, W59Y, T97A, V157Q, R158S, T162S, M223G, K224S
On to B6, for which, in test [2], the % CD107a+ (in CD8+) (degranulation, MM1S cells, Donor 2) was 77.6% and the MFI CD107a+ (degranulation, MM1S cells, Donor 2) came out at 2670 MFI.

B7: P5AC1-V1 (protein)
chain: EVQLLESGGGLVQPGGSLRLSCAASGFTFSSYAMNWVRQAPGKGLEWVSAILSSGGSTYYADSVKGRFTISRDNSKNTLYLQMNSLRAEDTAVYYCARYWPMDIWGQGTLVTVSSGGGGSGGGGSGGGGSEIVLTQSPGTLSLSPGERATLSCRGGQSVSSSYLAWYQQKPGQAPRLLMYDASIRATGIPDRFSGSGSGTDFTLTISRLEPEDFAVYYCQQYQSWPLTFGQGTKVEIKGLAVSTISSFFPPGYQIYIWAPLAGTCGVLLLSLVITLYCKRGRKKLLYIFKQPFMRPVQTTQEEDGCSCRFPEEEEGGCELRVKFSRSADAPAYQQGQNQLYNELNLGRREEYDVLDKRRGRDPEMGGKPRRKNPQEGLYNELQKDKMAEAYSEIGMKGERRRGKGHDGLYQGLSTATKDTYDALHMQALPPR
Regarding B7, in test [2], the % CD107a+ (in CD8+) (degranulation, MM1S cells, Donor 2) is 68.6% and the MFI CD107a+ (degranulation, MM1S cells, Donor 2) worked out at 2190 MFI.

Values taken from US20160297884A1.
